Measured values published in paper PMC11316641 (Cell, 2024).

B1: WDR11 (natural protein, human)
chain: MLPYTVNFKVSARTLTGALNAHNKAAVDWGWQGLIAYGCHSLVVVIDSITAQTLQVLEKHKADVVKVKWARENYHHNIGSPYCLRLASADVNGKIIVWDVAAGVAQCEIQEHAKPIQDVQWLWNQDASRDLLLAIHPPNYIVLWNADTGTKLWKKSYADNILSFSFDPFDPSHLTLLTSEGIVFISDFSPSKPPSGPGKKVYISSPHSSPAHNKLATATGAKKALNKVKILITQEKPSAEFITLNDCLQLAYLPSKRNHMLLLYPREILILDLEVNQTVGVIAIERTGVPFLQVIPCFQRDGLFCLHENGCITLRVRRSYNNIFTTSNEEPDPDPVQELTYDLRSQCDAIRVTKTVRPFSMVCCPVNENAAALVVSDGRVMIWELKSAVCNRNSRNSSSGVSPLYSPVSFCGIPVGVLQNKLPDLSLDNMIGQSAIAGEEHPRGSILREVHLKFLLTGLLSGLPAPQFAIRMCPPLTTKNIKMYQPLLAVGTSNGSVLVYHLTSGLLHKELSIHSCEVKGIEWTSLTSFLSFATSTPNNMGLVRNELQLVDLPTGRSIAFRGERGNDESAIEMIKVSHLKQYLAVVFRDKPLELWDVRTCTLLREMSKNFPTITALEWSPSHNLKSLRKKQLATREAMARQTVVSDTELSIVESSVISLLQEAESKSELSQNISAREHFVFTDIDGQVYHLTVEGNSVKDSARIPPDGSMGSITCIAWKGDTLVLGDMDGNLNFWDLKGRVSRGIPTHRSWVRKIRFAPGKGNQKLIAMYNDGAEVWDTKEVQMVSSLRSGRNVTFRILDVDWCTSDKVILASDDGCIRVLEMSMKSACFRMDEQELTEPVWCPYLLVPRASLALKAFLLHQPWNGQYSLDISHVDYPENEEIKNLLQEQLNSLSNDIKKLLLDPEFTLLQRCLLVSRLYGDESELHFWTVAAHYLHSLSQEKSASTTAPKEAAPRDKLSNPLDICYDVLCENAYFQKFQLERVNLQEVKRSTYDHTRKCTDQLLLLGQTDRAVQLLLETSADNQHYYCDSLKACLVTTVTSSGPSQSTIKLVATNMIANGKLAEGVQLLCLIDKAADACRYLQTYGEWNRAAWLAKVRLNPEECADVLRRWVDHLCSPQVNQKSKALLVLLSLGCFFSVAETLHSMRYFDRAALFVEACLKYGAFEVTEDTEKLITAIYADYARSLKNLGFKQGAVLFASKAGAAGKDLLNELESPKEEPIEE

Experiments:
[1] = target: WDR11-FAM91A1 complex (human) (UniProt Q658Y4); experiment: BLI
SEC-MALS = target: the molecule itself; experiment: SEC-MALS

Chain of WDR11-FAM91A1 complex (human) (Q658Y4 whole entry, one chain of several): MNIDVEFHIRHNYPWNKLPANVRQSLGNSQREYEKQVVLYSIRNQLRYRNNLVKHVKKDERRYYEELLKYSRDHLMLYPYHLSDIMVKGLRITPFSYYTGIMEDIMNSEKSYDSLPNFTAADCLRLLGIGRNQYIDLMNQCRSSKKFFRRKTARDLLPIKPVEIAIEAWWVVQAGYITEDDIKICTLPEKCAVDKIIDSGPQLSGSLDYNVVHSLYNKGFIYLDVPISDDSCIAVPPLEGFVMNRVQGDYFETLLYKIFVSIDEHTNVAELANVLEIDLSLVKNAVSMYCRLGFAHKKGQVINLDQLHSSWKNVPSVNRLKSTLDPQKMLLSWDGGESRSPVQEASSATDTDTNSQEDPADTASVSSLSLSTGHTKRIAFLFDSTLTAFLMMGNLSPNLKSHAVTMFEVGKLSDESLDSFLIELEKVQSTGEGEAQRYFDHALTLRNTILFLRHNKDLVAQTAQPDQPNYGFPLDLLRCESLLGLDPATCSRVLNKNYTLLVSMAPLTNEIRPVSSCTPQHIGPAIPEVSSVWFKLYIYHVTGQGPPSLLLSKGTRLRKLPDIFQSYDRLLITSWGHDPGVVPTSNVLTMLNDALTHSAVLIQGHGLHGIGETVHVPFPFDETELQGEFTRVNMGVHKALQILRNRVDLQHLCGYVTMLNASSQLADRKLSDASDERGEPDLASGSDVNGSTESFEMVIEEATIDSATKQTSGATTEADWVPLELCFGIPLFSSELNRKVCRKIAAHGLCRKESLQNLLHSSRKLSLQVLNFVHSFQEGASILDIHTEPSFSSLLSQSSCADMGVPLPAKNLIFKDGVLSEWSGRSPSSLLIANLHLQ

Molecule	Kd [1] [µM]	stoichiometry N (SEC-MALS)
CI-MPR AC1-WT peptide	20.8	–
B1	–	2
